{
  "source": "patent US20190144549A1",
  "about": "(TILOS THERAPEUTICS, published 2019)",
  "binders": {"B1": {"name": "28G11 (antibody, V domains shown)", "VH": "EVKLVESGGGLVQPGGSLSLSCAASGFTFTDYYMSWVRQPPGKALEWLGFIRNKPNGYTTEYSASVKGRFTISRDNSQSILYLQMNVLRAEDSATYYCARYTGGGYFDYWGQGTTLTVSS", "VL": "DIQMTQTTSSLSASLGDRLTISCRASQDISNYLNWYQQKPDGTVKLLIYYTSRLHSGVPSRFSGSGSGTDYSLTISNLEQADIATYFCQQGDTLPWTFGGGTKLEIK", "notes": "Mouse hybridoma antibody; Used biotinylated or dye-conjugated in cell assays; also called 28G11_(hyb); 28G11_hyb"}, "B2": {"name": "7H4 (antibody, V domains shown)", "VH": "DVQLQESGPGLVKPSQSLSLTCSVTGYSITSGYYWNWIRQFPGNKLEWMGYISYDGTNNYNPSLKNRISITRDTSKHQFFLKLNSVTTEDTATYYCARSFYNNYFDFWGQGTTLTVSS", "VL": "DIQMTQSPSSLSASLGGKVTITCKASQDIDKYIAWYQHKPGKGPRLLIHYTSTLQPGIPSRFSGSGSGRDYSFNISNLEPEDIATYYCLQYDNLRTFGGGTKLEIK"}, "B3": {"name": "16B4 (antibody, V domains shown)", "VH": "QVTLKESGPGILQPSQTLSLTCSFSGFSLNTFGMGVGWIRQPSGKGLEWLAHIWWDDDKYYNPALKSRLTISKDTSKNQVFLKIANVDTADTATYYCARIYYYGSWGLYYFDYWGQGTTLTVSS", "VL": "B1 VL with L19V, A81E, D92N, W96P"}, "B4": {"name": "28G11_hIgG1 (antibody, V domains shown)", "VH": "B1 VH", "VL": "B1 VL", "notes": "28G11 in human IgG1 format, by its name"}},
  "key": {"[1]": {"molecular_target": "T1, human LAP-TGFβ1 on transfected cells (human, UniProt P01137 30-390)", "T1 sequence (P01137 other isoform, or with tags, fused parts or gaps)": "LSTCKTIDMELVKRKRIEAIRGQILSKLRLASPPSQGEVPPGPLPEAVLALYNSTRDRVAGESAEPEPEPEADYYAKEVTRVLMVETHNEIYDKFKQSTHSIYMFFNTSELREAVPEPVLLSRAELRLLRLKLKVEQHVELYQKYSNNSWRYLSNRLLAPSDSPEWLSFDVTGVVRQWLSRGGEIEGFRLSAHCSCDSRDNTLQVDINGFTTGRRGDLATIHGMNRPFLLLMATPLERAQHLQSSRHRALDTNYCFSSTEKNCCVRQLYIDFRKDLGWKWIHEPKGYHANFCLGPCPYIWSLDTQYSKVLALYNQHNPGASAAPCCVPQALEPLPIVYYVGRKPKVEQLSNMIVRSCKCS", "assay": "cell-based or functional assay"}, "[2]": {"molecular_target": "T2, murine LAP-TGFβ1 on transfected cells (murine, UniProt P04202 30-390)", "T2 sequence (P04202 30-390)": "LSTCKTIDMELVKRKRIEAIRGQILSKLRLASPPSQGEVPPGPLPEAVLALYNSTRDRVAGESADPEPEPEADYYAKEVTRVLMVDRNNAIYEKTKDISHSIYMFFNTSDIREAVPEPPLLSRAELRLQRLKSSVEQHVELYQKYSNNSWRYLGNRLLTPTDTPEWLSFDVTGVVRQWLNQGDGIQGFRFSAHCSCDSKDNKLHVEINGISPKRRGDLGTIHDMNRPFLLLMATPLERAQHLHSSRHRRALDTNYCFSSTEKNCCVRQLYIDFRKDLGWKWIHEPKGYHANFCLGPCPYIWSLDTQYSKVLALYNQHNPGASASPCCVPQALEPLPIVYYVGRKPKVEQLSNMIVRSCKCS", "assay": "cell-based or functional assay"}, "[3]": {"molecular_target": "T3, human LAP-TGFβ2 on HT1080 cells (human, UniProt P61812 21-414)", "T3 construct": "also called human TGFβ2", "T3 sequence": "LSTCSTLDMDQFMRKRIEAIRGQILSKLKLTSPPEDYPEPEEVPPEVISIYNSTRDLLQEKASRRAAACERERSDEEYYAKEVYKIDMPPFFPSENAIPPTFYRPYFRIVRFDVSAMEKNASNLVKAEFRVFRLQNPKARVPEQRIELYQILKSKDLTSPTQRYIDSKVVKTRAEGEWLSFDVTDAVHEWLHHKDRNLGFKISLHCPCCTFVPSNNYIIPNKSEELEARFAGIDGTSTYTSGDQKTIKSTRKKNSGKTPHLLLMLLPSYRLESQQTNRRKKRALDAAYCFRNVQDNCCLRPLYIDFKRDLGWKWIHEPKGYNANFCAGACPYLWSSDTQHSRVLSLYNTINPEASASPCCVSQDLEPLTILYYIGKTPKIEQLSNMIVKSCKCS", "assay": "summary table; binding to human TGFβ2", "procedure": "(§1) Briefly, 4×10⁵ each of (a) HT1080 cells, (b) HT1080 cells overexpressing human LAP-TGFβ1, (c) HT1080 cells overexpressing human LAP-TGFβ2, (d) HT1080 cells overexpressing human LAP-TGFβ3, (e) HT1080 cells overexpressing murine LAP-TGFβ1, (f) P3U1 cells, (g) P3U1 cells overexpressing LAP-TGFβ1 and GARP, and (h) P3U1 cells overexpressing LAP-TGFβ1 and LRRC33 were cultured in 96-well plates. The plates were centrifuged for 5 min at 1,500 rpm, liquid was removed, and cells were resuspended with 200 μL FACS buffer. The plates were centrifuged again, diluted primary antibody was added to each well, and the plates were incubated on ice for 20 minutes, followed by centrifugation. The cells were resuspended in 200 μL FACS buffer, centrifuged again, and resuspended in 50 μL diluted secondary antibody (Alexa647-anti-Human IgG or APC-anti-Mouse IgG). The plates were incubated on ice for 20 minutes in the dark, washed twice with 200 μL FACS buffer, and cells from each well (in 200 μL FACS buffer) were read on the Attune NXT instrument."}, "[4]": {"molecular_target": "T4, human LAP-TGFβ3 on HT1080 cells (human, UniProt P10600 24-412)", "T4 construct": "also called human TGFβ3", "T4 sequence": "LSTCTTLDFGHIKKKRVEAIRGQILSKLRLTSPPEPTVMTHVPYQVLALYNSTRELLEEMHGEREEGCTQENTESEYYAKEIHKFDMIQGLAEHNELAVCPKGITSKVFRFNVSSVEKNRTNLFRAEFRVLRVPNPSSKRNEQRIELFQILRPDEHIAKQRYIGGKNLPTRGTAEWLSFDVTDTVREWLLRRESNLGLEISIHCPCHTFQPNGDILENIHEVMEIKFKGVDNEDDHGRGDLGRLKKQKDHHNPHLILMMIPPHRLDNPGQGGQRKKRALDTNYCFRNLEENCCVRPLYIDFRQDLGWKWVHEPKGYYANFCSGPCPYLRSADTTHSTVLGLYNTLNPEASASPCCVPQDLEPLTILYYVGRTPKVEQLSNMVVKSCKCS", "assay": "summary table; binding to human TGFβ3", "procedure": "as §1"}, "[5]": {"molecular_target": "T2, murine LAP-TGFβ1 on transfected cells", "assay": "summary table; binding to murine TGFβ1 on transfected cells"}, "[6]": {"molecular_target": "T5, LAP (LAP-TGFβ1) expressed endogenously on murine cells (murine, UniProt P04202 30-390)", "T5 construct": "Natural LAP-TGFβ1 on primary mouse cells, GARP+ or GARPneg; also called LAP on murine platelets, T cells, Tregs, B cells, tumour immune cells", "T5 sequence (P04202 30-390)": "as the sequence (P04202 30-390) above", "assay": "summary table; binding to GARP+ murine cells"}, "[7]": {"molecular_target": "T6, recombinant human LAP-TGFβ1-Fc fusion protein (human, UniProt P01137 30-390)", "T6 construct": "also called human TGFβ1 in absence of anchor protein (ForteBio); not shown: Fc part, linker and order of fusion not described", "T6 sequence (P01137 other isoform, or with tags, fused parts or gaps limits assumed)": "as the sequence (P01137 other isoform, or with tags, fused parts or gaps) above", "assay": "bio-layer interferometry (ForteBio), single concentration", "from_the_text": "The ability of the antibodies to bind in this assay provides definitive evidence that the antibodies bind to LAP-TGFβ1 in the absence of an anchor protein."}, "[8]": {"molecular_target": "T1, human LAP-TGFβ1 on transfected cells", "assay": "summary table; binding to human TGFβ1 on transfected cells"}, "[9]": {"molecular_target": "T7, LAP-only variant (human LAP without mature TGFβ1) on HT1080 cells (human, UniProt P01137 30-277)", "T7 construct": "Overexpressed on HT1080 cells; also called HT1080-emptyLAP; empty LAP", "T7 sequence (P01137 30-277 limits assumed, stated change not applied)": "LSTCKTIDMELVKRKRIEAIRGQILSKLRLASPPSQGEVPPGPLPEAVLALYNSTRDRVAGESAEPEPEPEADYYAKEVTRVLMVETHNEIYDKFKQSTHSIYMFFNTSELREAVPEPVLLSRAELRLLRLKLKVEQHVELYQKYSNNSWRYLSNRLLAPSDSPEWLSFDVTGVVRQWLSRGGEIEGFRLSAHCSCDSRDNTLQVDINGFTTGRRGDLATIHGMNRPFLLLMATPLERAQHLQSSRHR", "assay": "flow cytometry, HT1080 cells overexpressing the LAP-only variant", "procedure": "as §1\n(§2) Briefly, 4×10⁵ each of (a) HT1080 cells, (b) HT1080 cells overexpressing human LAP-TGFβ1, (c) HT1080 cells overexpressing LAP-TGFβ1 with K27C and Y75C mutations, (d) HT1080 cells overexpressing LAP-TGFβ1 with a Y74T mutation, and (e) HT1080 cells overexpressing the LAP-only variant were cultured in 96-well plates. […]"}, "[10]": {"molecular_target": "T3, human LAP-TGFβ2 on HT1080 cells", "assay": "flow cytometry, HT1080 cells overexpressing human LAP-TGFβ2", "procedure": "as §1"}, "[11]": {"molecular_target": "T8, human LAP-TGFβ1 with a Y74T mutation on HT1080 cells (human, UniProt P01137 30-390)", "T8 construct": "also called HT1080-Y74T; Y74T (open) LAP-TGFβ1 variant", "T8 sequence (P01137 other isoform, or with tags, fused parts or gaps Y74T Y74T)": "as the sequence (P01137 other isoform, or with tags, fused parts or gaps) above, with Y74T counted along it", "assay": "flow cytometry, HT1080 cells overexpressing the variant", "procedure": "as §1, §2"}, "[12]": {"molecular_target": "T4, human LAP-TGFβ3 on HT1080 cells", "assay": "flow cytometry, HT1080 cells overexpressing human LAP-TGFβ3", "procedure": "as §1"}, "[13]": {"molecular_target": "T9, mature TGFβ1 (free human TGFβ1, without LAP) (human, UniProt P01137 279-390)", "T9 construct": "also called free TGFβ1", "T9 sequence (P01137 279-390 limits assumed)": "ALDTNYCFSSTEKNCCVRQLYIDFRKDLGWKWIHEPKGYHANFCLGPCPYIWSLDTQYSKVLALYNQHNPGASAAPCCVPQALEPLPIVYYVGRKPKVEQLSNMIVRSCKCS", "assay": "inhibition of a TGFβ1 ELISA after pre-incubation with mature TGFβ1", "procedure": "To determine whether anti-LAP antibodies 28G11_hIgG1, 22F9_hIgG1, 20E6_hIgG1, 17G8_hIgG1, and 24E3_hIgG1, bind to free human TGFβ1 (i.e., mature TGFβ1 that lacks LAP), the ability of the antibodies to inhibit an anti-TGFβ ELISA was evaluated. Briefly, mature TGFβ1 (1000 μg) was incubated with the indicated anti-LAP antibodies at 10 μg/mL, an isotype control antibody as a negative control or the anti-TGFβ antibody 1D11 as a positive control for 10 minutes on ice. Supernatants were assayed in a TGFβ1 ELISA (R&D Systems) according to the manufacturer instructions to measure free TGFβ1."}},
  "note": "Positions count from the first letter of the chain named.",
  "data": [
    {"binder": "B1", "values": [
      {"measurement": "IC50 of inhibition of TGFβ1 activation, P3U1 cell assay", "setting": "[1]", "result": 1.4, "unit": "µg/mL"},
      {"measurement": "IC50 of inhibition of TGFβ1 activation, P3U1 cell assay", "setting": "[2]", "result": 1, "unit": "µg/mL"},
      {"measurement": "binding result", "setting": "[3]", "result": "no binding"},
      {"measurement": "binding result", "setting": "[4]", "result": "no binding"}
    ]},
    {"binder": "B2", "values": [
      {"measurement": "binding result", "setting": "[5]", "result": "binds"},
      {"measurement": "binding result", "setting": "[6]", "result": "binds"}
    ]},
    {"binder": "B3", "values": [
      {"measurement": "binding result", "setting": "[7]", "result": "no binding"},
      {"measurement": "binding result", "setting": "[8]", "result": "no binding"}
    ]},
    {"binder": "B4", "values": [
      {"measurement": "binding result", "setting": "[9]", "result": "no binding"},
      {"measurement": "binding result", "setting": "[10]", "result": "no binding"},
      {"measurement": "binding result", "setting": "[11]", "result": "no binding"},
      {"measurement": "binding result", "setting": "[12]", "result": "no binding"},
      {"measurement": "binding result", "setting": "[13]", "result": "no binding (tested: 10 µg/mL)"}
    ]}
  ]
}
